Biological target: Synaptophysin (rat (endogenous in rat brain synaptic vesicles)), P07825
Assay: cross-linking; BS3 cross-linked synaptic vesicle proteins, gel electrophoresis, western blot with antibodies against Synaptobrevin-2 and Synaptophysin
Settings: remark: other sources report otherwise

stoichiometry N: 2
B1: Synaptophysin, P07825 1-307 (natural protein)
chain: MDVVNQLVAGGQFRVVKEPLGFVKVLQWVFAIFAFATCGSYTGELRLSVECANKTESALNIEVEFEYPFRLHQVYFDAPSCVKGGTTKIFLVGDYSSSAEFFVTVAVFAFLYSMGALATYIFLQNKYRENNKGPMMDFLATAVFAFMWLVSSSAWAKGLSDVKMATDPENIIKEMPMCRQTGNTCKELRDPVTSGLNTSVVFGFLNLVLWVGNLWFVFKETGWAAPFMRAPPGAPEKQPAPGDAYGDAGYGQGPGGYGPQDSYGPQGGYQPDYGQPASGGGGYGPQGDYGQQGYGQQGAPTSFSNQM
